This is an account of results in patent publication US20160362487A1 (Regeneron, published 2016).

Positions count from the first letter of the chain named. Names and notes keep the numbering of the source.

To fix the notation:
B1: H4H9675P (antibody, human IgG4, V domains shown)
VH: EVQLVESGGNLEQPGGSLRLSCTASGFTFSRSAMNWVRRAPGKGLEWVSGISGSGGRTYYADSVKGRFTISRDNSKNTLYLQMNSLSAEDTAAYYCAKDSYTTSWYGGMDVWGHGTTVTVSS
VL: DIQMTQSPSSVSASVGDRVTITCRASQGIFSWLAWYQQKPGKAPKLLIYAASSLQSGVPSRFSGSGSGTDFTLTISSLQPEDFAIYYCQQANSVPITFGQGTRLEIK
notes: Human IgG4 Fc (H4H)
B2: H1M9559N (antibody, mouse IgG1, V domains shown)
VH: QVQLVESGGGVVQPGRSLRLSCAASGFTFSSYGMHWVRQAPGKGLEWVAVIWYDGRNKYYTDSVKGRFTISRDNSKNTLYLQMDSLRAEDTAVYYCARERYISSYYGGFDPWGQGALVTVSS
VL: B1 VL with F30S, L46V, I85T, V94F, I96F, Q100P, R103K, E105D
notes: Human variable domains, mouse IgG1 Fc (H1M)
B3: H4H9672P (antibody, human IgG4, V domains shown)
VH: EVQLVESGGGLVQPGGSLRLSCAASGFTLRSYVMYWVRQGPGKGLEGVSGISGSSGGTYYTDSVKGRFTISRDNSKNTLFLQMNSLRAEDTAVYFCARSVYSTTWYGGFQHWGQGTLVTVSS
VL: DIQMTQSPSSVSVSVGDRVTITCRASQVISSWLAWYQLKPGKAPKLLIYAASSLQSGVPSRFSGSGSGTDFTLTISGLQPEDFAVYYCQQTNSFPLTFGGGTKVEIK
notes: Human IgG4 Fc (H4H)
B4: H4H9676P (antibody, human IgG4, V domains shown)
VH: EVQLVESGGGLVQPGGSLRLSCSASGFTFSSYAMNWVRQAPGKGLEWVTAISGSGGGTYYADSVKGRFTISRDNSKNSLFLQLNSLRAEDTAVYYCAKQTYTSSWYGGFDIWGQGTMVTVSS
VL: B3 VL with V13A, V28G, I29F, L38Q, K39I, S53R, S63R, G77S, V85T, T91A
notes: Human IgG4 Fc (H4H)

The first assay deals with T1, cynomolgus monkey IL-33 expressed with a C-terminal hexahistidine tag (cynomolgus monkey).
T1 construct: also called MfIL-33-6His; Mf-IL-33-6His
T1 chain: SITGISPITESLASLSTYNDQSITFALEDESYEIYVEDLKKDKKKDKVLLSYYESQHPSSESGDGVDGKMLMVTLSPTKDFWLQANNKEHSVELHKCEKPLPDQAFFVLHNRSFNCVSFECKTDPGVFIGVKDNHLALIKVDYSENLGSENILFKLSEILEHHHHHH
The assay can be described thus: SPR 37C pH7.4, mAb captured. Summed up: (§1)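 Captured-mAb SPR kinetics: 4 min IL-33 injection, 10 min buffer dissociation, pH 7.4 ADA/NaCl/EDTA/Tween-20 buffer, 1:1 model fitting to give ka, kd, KD and t½.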
Take B1: the Kd (commonly a measure of binding affinity in units of concentration) came to 4.81 nM; the koff (commonly the first-order rate constant of dissociation) was 0.00491 s⁻¹; the kon – broadly, the second-order rate constant of association – amounted to 1.02e+06 M⁻¹ s⁻¹; the t½ (in general, the time needed for the level to fall by half in the phase considered) was determined as 2.4 min.

Consider B2, for which the Kd turned out to be 7.04 nM, the koff was 0.00347 s⁻¹, the kon was determined as 493000 M⁻¹ s⁻¹ and the t½ amounted to 3.3 min.

In turn, B3 came in with a Kd of 13.7 nM, a koff of 0.013 s⁻¹, a kon of 946000 M⁻¹ s⁻¹ and a t½ of 0.9 min.

For the molecule B4, the Kd stood at 7.7 nM, the koff came out at 0.0144 s⁻¹, the kon was 1.87e+06 M⁻¹ s⁻¹ and the t½ worked out at 0.8 min.

The target of another assay is T2, human IL-33 (R&D Systems, #3625-IL-010/CF) (human, UniProt O95760 112-270).
T2 construct: Commercial recombinant protein; also called hIL-33; interleukin-33
T2 sequence (looked up): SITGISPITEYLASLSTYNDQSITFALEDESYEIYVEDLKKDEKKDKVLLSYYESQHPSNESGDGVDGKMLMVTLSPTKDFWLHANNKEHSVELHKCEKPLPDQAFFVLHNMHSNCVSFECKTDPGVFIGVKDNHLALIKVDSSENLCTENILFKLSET
The assay can be described thus: SPR 37C pH7.4, mAb captured. Summed up: as §1
Consider B1, for which binding was put at a Kd of 0.411 nM, the koff turned out to be 0.000872 s⁻¹, the kon was 2.12e+06 M⁻¹ s⁻¹ and the t½ came out at 13 min.

Molecule B2 came in with a dissociation constant (Kd) of 2.03 nM, a koff of 0.000962 s⁻¹, a kon of 473000 M⁻¹ s⁻¹ and a t½ of 12 min.

On to B3, for which binding was characterised by a dissociation constant (Kd) of 1.05 nM, the koff stood at 0.00115 s⁻¹, the kon is 1.09e+06 M⁻¹ s⁻¹ and the t½ turned out to be 10 min.

B4 came in with a Kd of 0.922 nM, a koff of 0.00128 s⁻¹, a kon of 1.38e+06 M⁻¹ s⁻¹ and a t½ of 9 min.

A further assay concerns the target T3, pre-formed complex of hIL-33 and captured hST2-MMH (human, UniProt O95760 112-270).
T3 construct: Ligand-receptor complex on the sensor: hST2-MMH captured by anti-myc mAb and saturated with 100 nM hIL-33; also called hIL-33 pre-complexed with hST2-MMH
The assay can be described thus: SPR 25C, 100 nM mAb over hIL-33/hST2-MMH complex. Summed up: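 By SPR at 25 °C in HBS-ET, pH 7.4, captured hST2-MMH was saturated with 100 nM human IL-33 for 3 min. Then 100 nM antibody was injected for 3 min, and the binding response 3 min after antibody injection was recorded.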
As to B1, the “Antibody Binding Response (RU)” value is -1 RU.

B2: the “Antibody Binding Response (RU)” value was -4 RU.

On to B3, for which the “Antibody Binding Response (RU)” value is -1 RU.

For the molecule B4, the “Antibody Binding Response (RU)” value is -1 RU.

The target of the next assay is T2, human IL-33 (R&D Systems, …). The assay can be described thus: BLI; hIL-33 pre-mixed with mAb-2 Isotype control 2. Summed up: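 Octet bio-layer interferometry competition at 25 °C in HBS-ET (pH 7.4). Human IL-33 (100 nM) pre-mixed ≥2 h with 500 nM mAb-2, then flowed 4 min over biosensors bearing captured anti-IL-33 antibody after Fc-site saturation. Binding response (nm) recorded at the end of each step.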
On the technique in general: Biolayer interferometry detects binding as a change in optical thickness at a sensor tip.
In the case of B1, the “mAb-1 Binding to the Pre-complex of mAb-2 & hIL-33” value (“mAb-1 Binding to the Pre-complex” for short) amounted to 0.11 nm.

For the molecule B2, the “mAb-1 Binding to the Pre-complex” value is 0.11 nm.

As to B3, the “mAb-1 Binding to the Pre-complex” value was 0.08 nm.

On to B4, for which the “mAb-1 Binding to the Pre-complex” value was determined as 0.1 nm.

The target is the same in the next assay. The assay can be described thus: SPR 25C pH7.4, mAb captured. Summed up:
as §1
Regarding B1, the Kd was determined as 0.254 nM, the koff is 0.000258 s⁻¹, the kon is 1.02e+06 M⁻¹ s⁻¹ and the t½ was 45 min.

For the molecule B2, the Kd is 0.678 nM, the koff came to 0.000274 s⁻¹, the on-rate (kon) is 404000 M⁻¹ s⁻¹ and the t½ stood at 42 min.

B3: the Kd is 0.527 nM, the koff came to 0.000352 s⁻¹, the on-rate constant (kon) was 668000 M⁻¹ s⁻¹ and the t½ amounted to 33 min.

The molecule B4 showed a Kd of 0.334 nM, a koff of 0.000345 s⁻¹, a kon of 1.03e+06 M⁻¹ s⁻¹ and a t½ of 33 min.
